What was measured:
Test in all cases: Kinase Profiling Assay
Format in all cases: biochemical
Conditions in all cases: 100 μM
Aurora-B(h) = Aurora-B(h) (Homo sapiens, UniProt Q96GD4)
CaMKIIδ(h) = CaMKIIδ(h) (Homo sapiens, UniProt Q13557)
CDK5/p25(h) = CDK5/p25(h) (Homo sapiens, UniProt Q00535)
CDK7/cyclinH/MAT1(h) = CDK7/cyclinH/MAT1(h) (Homo sapiens, UniProt P50613)
CSK(h) = CSK(h) (Homo sapiens, UniProt P41240)
DAPK2(h) = DAPK2(h) (Homo sapiens, UniProt Q9UIK4)
FGFR4(h) = FGFR4(h) (Homo sapiens, UniProt P22455)
PAK4(h) = PAK4(h) (Homo sapiens, UniProt O96013)
PASK(h) = PASK(h) (Homo sapiens, UniProt Q96RG2)
PDGFRβ(h) = PDGFRβ(h) (Homo sapiens, UniProt P09619)
PKCμ(h) = target: T1, PKCμ(h) (Homo sapiens, UniProt Q15139)
T1 sequence (Q15139 1-912): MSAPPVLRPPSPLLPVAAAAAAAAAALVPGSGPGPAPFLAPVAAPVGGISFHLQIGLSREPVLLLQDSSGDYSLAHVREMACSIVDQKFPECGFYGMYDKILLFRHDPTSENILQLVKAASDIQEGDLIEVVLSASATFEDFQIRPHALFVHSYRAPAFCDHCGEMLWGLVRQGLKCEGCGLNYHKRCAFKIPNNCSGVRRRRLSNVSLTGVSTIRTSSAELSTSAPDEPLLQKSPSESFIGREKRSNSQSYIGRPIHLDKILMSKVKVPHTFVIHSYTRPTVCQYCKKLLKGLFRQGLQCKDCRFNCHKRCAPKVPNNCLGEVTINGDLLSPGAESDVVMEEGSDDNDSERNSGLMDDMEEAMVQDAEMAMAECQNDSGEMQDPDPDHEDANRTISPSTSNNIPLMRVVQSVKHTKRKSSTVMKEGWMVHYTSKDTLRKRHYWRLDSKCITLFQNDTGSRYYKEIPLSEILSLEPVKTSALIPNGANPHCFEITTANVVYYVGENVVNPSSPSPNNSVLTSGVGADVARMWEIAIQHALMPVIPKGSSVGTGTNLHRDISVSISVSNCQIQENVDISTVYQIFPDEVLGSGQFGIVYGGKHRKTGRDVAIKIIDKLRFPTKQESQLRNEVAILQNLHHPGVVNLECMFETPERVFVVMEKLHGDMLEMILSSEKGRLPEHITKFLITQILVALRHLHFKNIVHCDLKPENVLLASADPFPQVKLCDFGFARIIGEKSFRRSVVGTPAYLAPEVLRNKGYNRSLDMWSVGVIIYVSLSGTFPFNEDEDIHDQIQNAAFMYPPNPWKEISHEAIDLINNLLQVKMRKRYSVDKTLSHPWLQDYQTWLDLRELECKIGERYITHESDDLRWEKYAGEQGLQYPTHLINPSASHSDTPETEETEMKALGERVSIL

Src(T341M)(h) = Src(T341M)(h) (Homo sapiens, UniProt P12931, T341M)
TAK1(h) = target: T2, TAK1(h) (Homo sapiens, UniProt O43318)
T2 sequence (O43318 1-303 limits assumed): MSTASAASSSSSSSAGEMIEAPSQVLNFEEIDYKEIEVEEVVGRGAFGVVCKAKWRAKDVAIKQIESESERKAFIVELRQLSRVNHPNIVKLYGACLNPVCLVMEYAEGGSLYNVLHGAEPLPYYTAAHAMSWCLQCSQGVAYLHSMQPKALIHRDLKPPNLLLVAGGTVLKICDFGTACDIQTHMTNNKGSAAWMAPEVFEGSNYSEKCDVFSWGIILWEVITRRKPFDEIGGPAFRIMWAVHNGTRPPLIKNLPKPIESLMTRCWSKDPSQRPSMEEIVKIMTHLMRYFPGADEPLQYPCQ

Tie2(h) = Tie2(h) (Homo sapiens, UniProt Q02763)
ULK3(h) = target: T3, ULK3(h) (Homo sapiens, UniProt Q6PHR2)
T3 sequence (Q6PHR2 1-472): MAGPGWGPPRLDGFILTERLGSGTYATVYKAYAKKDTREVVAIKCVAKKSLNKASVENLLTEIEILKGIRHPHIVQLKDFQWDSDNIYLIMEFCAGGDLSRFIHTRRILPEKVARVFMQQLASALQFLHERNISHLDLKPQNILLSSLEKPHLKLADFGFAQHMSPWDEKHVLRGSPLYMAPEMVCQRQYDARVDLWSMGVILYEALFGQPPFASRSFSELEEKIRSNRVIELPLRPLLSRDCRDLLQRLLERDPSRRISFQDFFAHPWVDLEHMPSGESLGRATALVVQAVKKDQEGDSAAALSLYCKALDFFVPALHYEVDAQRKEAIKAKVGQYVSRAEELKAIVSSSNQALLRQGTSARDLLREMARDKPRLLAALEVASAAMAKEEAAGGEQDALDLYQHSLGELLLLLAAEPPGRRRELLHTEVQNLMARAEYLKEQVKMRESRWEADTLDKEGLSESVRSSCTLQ

Abl(h) = Abl(h) (Homo sapiens, UniProt P00519)
Flt4(h) = Flt4(h) (Homo sapiens, UniProt P35916)
MARK1(h) = MARK1(h) (Homo sapiens, UniProt Q9P0L2)
ROCK-I(h) = ROCK-I(h) (Homo sapiens, UniProt Q13464)

Abl(h), sequence (P00519 whole entry): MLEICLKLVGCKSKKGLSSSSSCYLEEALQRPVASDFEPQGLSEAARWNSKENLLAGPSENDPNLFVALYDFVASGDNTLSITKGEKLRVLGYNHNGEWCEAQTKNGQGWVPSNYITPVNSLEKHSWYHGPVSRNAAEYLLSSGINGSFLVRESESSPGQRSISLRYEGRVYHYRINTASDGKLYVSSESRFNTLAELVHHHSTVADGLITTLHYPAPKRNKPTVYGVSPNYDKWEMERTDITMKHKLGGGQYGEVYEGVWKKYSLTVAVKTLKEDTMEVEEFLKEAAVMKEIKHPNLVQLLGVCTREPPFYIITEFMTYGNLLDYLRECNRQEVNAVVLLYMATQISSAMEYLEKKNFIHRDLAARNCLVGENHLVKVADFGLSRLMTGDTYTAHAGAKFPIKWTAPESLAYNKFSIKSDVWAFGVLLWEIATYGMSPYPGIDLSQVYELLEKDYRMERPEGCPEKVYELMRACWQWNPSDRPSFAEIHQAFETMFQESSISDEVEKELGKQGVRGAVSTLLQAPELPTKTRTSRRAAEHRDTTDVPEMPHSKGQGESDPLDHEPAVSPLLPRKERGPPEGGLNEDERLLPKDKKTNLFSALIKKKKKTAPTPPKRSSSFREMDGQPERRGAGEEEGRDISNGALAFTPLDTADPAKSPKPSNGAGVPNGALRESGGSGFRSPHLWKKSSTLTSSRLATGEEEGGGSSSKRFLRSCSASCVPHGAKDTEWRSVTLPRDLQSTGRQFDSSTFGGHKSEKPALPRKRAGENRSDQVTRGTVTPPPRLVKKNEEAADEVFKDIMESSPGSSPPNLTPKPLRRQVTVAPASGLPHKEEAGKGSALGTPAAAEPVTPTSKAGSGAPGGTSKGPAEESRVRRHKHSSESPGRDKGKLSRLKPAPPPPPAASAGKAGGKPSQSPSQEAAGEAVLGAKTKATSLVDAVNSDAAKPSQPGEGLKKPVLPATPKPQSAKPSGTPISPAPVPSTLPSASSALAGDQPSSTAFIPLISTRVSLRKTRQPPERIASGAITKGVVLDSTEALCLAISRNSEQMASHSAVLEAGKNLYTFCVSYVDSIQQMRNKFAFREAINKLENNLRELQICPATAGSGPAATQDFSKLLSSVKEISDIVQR
CSK(h), sequence (P41240 whole entry): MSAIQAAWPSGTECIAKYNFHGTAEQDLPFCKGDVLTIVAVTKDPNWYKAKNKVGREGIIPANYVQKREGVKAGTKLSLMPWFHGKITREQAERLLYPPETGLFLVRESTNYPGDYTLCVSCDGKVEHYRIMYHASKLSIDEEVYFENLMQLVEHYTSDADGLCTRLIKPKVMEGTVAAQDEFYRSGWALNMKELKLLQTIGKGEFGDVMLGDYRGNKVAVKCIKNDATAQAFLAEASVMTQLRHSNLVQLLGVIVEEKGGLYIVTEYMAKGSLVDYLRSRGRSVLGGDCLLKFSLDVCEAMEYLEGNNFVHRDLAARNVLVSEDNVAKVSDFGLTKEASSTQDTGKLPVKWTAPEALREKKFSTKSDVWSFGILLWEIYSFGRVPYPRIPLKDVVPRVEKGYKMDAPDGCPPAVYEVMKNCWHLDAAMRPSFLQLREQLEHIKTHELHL
CaMKIIδ(h), sequence (Q13557 whole entry): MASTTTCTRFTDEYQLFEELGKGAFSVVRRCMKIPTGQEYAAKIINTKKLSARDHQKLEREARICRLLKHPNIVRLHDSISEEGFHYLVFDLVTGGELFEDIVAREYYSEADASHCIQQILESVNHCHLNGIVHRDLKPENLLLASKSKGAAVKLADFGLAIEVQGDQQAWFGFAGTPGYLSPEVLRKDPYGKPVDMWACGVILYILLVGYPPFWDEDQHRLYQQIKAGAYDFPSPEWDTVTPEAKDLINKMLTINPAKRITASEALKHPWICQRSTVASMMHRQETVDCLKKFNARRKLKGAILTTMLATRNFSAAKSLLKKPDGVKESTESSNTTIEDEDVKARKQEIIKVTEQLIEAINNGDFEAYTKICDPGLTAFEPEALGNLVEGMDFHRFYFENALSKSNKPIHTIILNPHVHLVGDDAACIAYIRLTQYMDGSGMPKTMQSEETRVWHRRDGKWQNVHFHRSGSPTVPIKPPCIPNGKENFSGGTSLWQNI
PDGFRβ(h), sequence (P09619 33-1106): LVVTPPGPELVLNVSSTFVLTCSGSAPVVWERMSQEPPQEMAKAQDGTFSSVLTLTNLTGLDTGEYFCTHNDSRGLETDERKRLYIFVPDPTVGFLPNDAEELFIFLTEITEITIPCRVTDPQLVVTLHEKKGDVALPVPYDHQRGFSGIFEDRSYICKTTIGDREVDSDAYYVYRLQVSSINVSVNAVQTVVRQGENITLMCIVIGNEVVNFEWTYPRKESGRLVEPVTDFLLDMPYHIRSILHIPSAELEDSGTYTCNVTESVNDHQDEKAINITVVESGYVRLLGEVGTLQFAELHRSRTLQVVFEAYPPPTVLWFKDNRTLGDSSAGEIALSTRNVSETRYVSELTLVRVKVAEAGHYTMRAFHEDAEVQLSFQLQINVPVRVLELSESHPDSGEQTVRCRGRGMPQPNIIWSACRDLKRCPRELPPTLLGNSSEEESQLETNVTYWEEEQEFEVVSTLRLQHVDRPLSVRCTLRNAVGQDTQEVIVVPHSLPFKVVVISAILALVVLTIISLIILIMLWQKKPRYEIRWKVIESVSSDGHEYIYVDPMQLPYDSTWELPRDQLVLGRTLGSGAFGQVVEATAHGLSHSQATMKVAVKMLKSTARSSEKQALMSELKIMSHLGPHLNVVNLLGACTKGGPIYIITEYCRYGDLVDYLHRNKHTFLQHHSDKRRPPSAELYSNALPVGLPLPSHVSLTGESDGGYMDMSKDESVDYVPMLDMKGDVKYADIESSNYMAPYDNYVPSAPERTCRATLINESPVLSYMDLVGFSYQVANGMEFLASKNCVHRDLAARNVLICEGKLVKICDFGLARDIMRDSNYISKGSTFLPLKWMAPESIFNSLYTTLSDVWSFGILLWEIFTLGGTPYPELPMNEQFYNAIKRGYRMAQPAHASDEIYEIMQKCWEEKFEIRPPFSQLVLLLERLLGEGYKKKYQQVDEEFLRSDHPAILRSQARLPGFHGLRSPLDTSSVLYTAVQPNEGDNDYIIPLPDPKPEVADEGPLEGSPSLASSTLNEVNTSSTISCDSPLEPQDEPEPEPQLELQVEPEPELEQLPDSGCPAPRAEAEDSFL
Flt4(h), sequence (P35916 25-1363): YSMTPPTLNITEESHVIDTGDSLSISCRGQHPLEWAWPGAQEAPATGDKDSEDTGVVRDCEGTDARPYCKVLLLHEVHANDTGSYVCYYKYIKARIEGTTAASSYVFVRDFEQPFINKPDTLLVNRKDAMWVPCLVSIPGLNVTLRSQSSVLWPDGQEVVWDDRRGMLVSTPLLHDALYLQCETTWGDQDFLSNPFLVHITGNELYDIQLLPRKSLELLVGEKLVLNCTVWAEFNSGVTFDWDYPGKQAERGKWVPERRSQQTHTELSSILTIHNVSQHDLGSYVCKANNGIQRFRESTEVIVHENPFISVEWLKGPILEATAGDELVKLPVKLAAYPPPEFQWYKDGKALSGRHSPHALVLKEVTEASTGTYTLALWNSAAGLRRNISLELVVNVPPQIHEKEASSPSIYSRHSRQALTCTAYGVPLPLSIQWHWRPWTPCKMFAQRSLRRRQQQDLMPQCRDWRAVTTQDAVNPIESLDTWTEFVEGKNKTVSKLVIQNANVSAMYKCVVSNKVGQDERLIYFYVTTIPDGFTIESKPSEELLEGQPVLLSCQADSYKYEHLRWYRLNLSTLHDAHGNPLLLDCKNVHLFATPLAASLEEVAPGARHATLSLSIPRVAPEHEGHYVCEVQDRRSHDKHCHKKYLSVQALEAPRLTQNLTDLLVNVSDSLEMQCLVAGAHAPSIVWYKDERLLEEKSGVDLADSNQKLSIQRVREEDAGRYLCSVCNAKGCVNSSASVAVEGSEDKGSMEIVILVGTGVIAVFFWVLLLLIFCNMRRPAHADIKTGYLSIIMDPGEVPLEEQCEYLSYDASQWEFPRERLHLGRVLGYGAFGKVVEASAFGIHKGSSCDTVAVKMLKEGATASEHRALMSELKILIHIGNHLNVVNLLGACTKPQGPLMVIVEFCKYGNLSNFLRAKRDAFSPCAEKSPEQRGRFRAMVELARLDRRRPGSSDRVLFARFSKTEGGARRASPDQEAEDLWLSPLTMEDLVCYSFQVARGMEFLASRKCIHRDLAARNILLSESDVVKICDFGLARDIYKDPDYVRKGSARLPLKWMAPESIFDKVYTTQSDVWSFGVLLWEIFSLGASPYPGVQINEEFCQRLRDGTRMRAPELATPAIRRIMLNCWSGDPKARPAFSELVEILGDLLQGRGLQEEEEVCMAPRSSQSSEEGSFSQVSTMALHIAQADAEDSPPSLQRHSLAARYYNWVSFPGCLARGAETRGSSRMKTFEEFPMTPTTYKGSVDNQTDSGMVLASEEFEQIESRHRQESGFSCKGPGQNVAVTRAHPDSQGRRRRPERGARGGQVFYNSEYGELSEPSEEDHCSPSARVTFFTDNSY
Aurora-B(h), sequence (Q96GD4 whole entry): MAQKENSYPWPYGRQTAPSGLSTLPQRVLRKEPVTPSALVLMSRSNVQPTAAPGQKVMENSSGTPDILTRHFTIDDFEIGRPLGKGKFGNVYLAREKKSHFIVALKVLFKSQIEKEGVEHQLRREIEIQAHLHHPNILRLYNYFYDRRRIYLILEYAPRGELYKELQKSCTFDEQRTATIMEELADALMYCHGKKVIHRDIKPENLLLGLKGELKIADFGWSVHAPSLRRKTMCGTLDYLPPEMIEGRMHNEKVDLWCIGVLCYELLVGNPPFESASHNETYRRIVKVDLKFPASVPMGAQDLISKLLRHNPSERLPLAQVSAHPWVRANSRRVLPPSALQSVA

YARAAARQARAKALNRQLGVA [MMI-0200] was tested, and the “% activity” value (Aurora-B(h)) was 166%, the “% activity” value (CaMKIIδ(h)) was 2% and the “% activity” value (CDK5/p25(h)) was 97%. For the same sequence, the “% activity” value (CDK7/cyclinH/MAT1(h)) was 67%, the “% activity” value (CSK(h)) was 33% and the “% activity” value (DAPK2(h)) was 92%. The “% activity” value (FGFR4(h)) was 75%, the “% activity” value (PAK4(h)) was 98% and the “% activity” value (PASK(h)) was 60%. The “% activity” value (PDGFRβ(h)) was 137%, the “% activity” value (PKCμ(h)) was 73% and the “% activity” value (Src(T341M)(h)) was 56%. For the same sequence, the “% activity” value (TAK1(h)) was 124%, the “% activity” value (Tie2(h)) was 53% and the “% activity” value (ULK3(h)) was 164%.

KAFAKLAARLYRKALARQLGVAA [MMI-0400] was tested, and the “% activity” value (Abl(h)) was 84%, the “% activity” value (Aurora-B(h)) was 150% and the “% activity” value (CaMKIIδ(h)) was 2%. The “% activity” value (CDK5/p25(h)) was 92%, the “% activity” value (CDK7/cyclinH/MAT1(h)) was 47% and the “% activity” value (CSK(h)) was 16%. For the same sequence, the “% activity” value (DAPK2(h)) was 16%, the “% activity” value (FGFR4(h)) was 19% and the “% activity” value (Flt4(h)) was 89%. The “% activity” value (MARK1(h)) was 120%, the “% activity” value (PAK4(h)) was 89% and the “% activity” value (PASK(h)) was 28%. The “% activity” value (PDGFRβ(h)) was 53%, the “% activity” value (PKCμ(h)) was 14% and the “% activity” value (ROCK-I(h)) was 73%. For the same sequence, the “% activity” value (Src(T341M)(h)) was 76%, the “% activity” value (TAK1(h)) was 177% and the “% activity” value (Tie2(h)) was 21%. The “% activity” value (ULK3(h)) was 147%.

For HRRIKAWLKKIKALARQLGVAA [MMI-0500], the “% activity” value (Abl(h)) was 16%, the “% activity” value (Aurora-B(h)) was 5% and the “% activity” value (CaMKIIδ(h)) was 1%. The “% activity” value (CDK5/p25(h)) was 66%, the “% activity” value (CDK7/cyclinH/MAT1(h)) was 15% and the “% activity” value (CSK(h)) was 2%. The “% activity” value (DAPK2(h)) was 3%, the “% activity” value (FGFR4(h)) was 3% and the “% activity” value (Flt4(h)) was 73%. The “% activity” value (MARK1(h)) was 110%, the “% activity” value (PAK4(h)) was 86% and the “% activity” value (PASK(h)) was 9%. For the same sequence, the “% activity” value (PDGFRβ(h)) was 40%, the “% activity” value (PKCμ(h)) was 10% and the “% activity” value (ROCK-I(h)) was 17%. For the same sequence, the “% activity” value (Src(T341M)(h)) was 59%, the “% activity” value (Tie2(h)) was 22% and the “% activity” value (ULK3(h)) was 177%.

For FAKLAARLYRKALARQLGVAA [MMI-0300], the “% activity” value (Abl(h)) was 69%, the “% activity” value (Aurora-B(h)) was 128% and the “% activity” value (CaMKIIδ(h)) was 1%. For the same sequence, the “% activity” value (CDK5/p25(h)) was 89%, the “% activity” value (CDK7/cyclinH/MAT1(h)) was 65% and the “% activity” value (CSK(h)) was 49%. The “% activity” value (DAPK2(h)) was 32%, the “% activity” value (FGFR4(h)) was 28% and the “% activity” value (Flt4(h)) was 83%. For the same sequence, the “% activity” value (MARK1(h)) was 132%, the “% activity” value (PAK4(h)) was 94% and the “% activity” value (PASK(h)) was 29%. For the same sequence, the “% activity” value (PDGFRβ(h)) was 81%, the “% activity” value (PKCμ(h)) was 22% and the “% activity” value (ROCK-I(h)) was 79%. For the same sequence, the “% activity” value (Src(T341M)(h)) was 70%, the “% activity” value (TAK1(h)) was 122% and the “% activity” value (Tie2(h)) was 26%. For the same sequence, the “% activity” value (ULK3(h)) was 167%.
